Assay results reported in a protein production outcome set (Wang et al. 2014).

Assay: label from the status in PepcDB records
In the case of “MEYDYLVIAGYFALMVAISLLFKKMASNSTSDYFRGGGKMLWWMVGATAFMTQFSAWTFTGAAGKAFNDGFAVLAVFVGNMVAYVFAYFYFARRFRQMRVDTPTEGVKRRFGNTNEQFFTWVIIPLSVINAGVWLNGLGVFASAVFNADIVTTIWVTGLAVLAISLLSGAWGVVASDFIQTLVVAVISIACAAVALYVVGGPGEIVENFPGGFIMGPDMNYPLLLVCTFIFFVVKQLQSINNMQESYRFLNAKDSKNASKAALMALVMMLFGAVIWFIPPWASAILYPDAATQYSSLGAKASDAVYLVFARETMPLGTVGLLMAGLFAATMSSMDSALNRNSGIFVRSFYSNIVRKGQASDKELLRAGQIACLVNGILVIMMAQFFNSLKHLSLFDLMMQVATLLQSPILVPLFLGIIIRRTPKWAPWATVVVGMFVSWSVVKIFTPEFVGSWFGMDELTRREAGEMRTMITIAAHLVFTAGFFCLSTLFYKEETDTHKETTAEFFKDVDTECVAEEGQDIVDRMQRAKLGTLVIYMAAGLTLMVLIPNPLWGRLLFLACAASVFAVGYGLKKSAKLDTQLSKVAATTTQ”, the protein production is reported as “failed”.
With “MEYGAICTPFIFVVYAKSKYLCVLISNEMGKNKLEKFADMASYPHVFEYPYSAVDNVPFDMKGKWHQEFFGNDHPIVLELGCGRGEYTVGLGRMFPDKNFIAVDIKGSRMWTGATESLQAGMKNVAFLRTNIEIIERFFAAGEVSEIWLTFSDPQMKKATKRLTSTYFMERYRKFLKPDGIIHLKTDSNFMFTYTKYMIEANQLPVEFITEDLYHSDLVDDILSIKTYYEQQWLDRGLNIKYIKFRLPQEGVLQEPDVEIELDPYRSYNRSKRSGLQTSK” the protein production was “failed”.
In the case of “MEYHLRTKLNGNIAMTSCFHENSFLQCDRSLYKFIWVRHGALDVEVDHVVMHLEKEEMISLTPLHHVQIRGVDGEYLTFLFNSNFYCIYGHDSEVSCNGFLFNGSSRVMRLKLSPSQSARLDSIVDIFRGECGIQDNLQEEMLRIILKRFIITCTRIAREKFDVDPGRENMFDVIRQFYVLVDSHFKEKKQVQDYADMLCRSPKTISNLFSLYGLSSPLRVIHERVDAEAKRLLLYTGKSAKEISEILGFEDLATFSRFFKKMNKESLSEYRKREKRE”, the protein production is reported as “not failed”.
In the case of “MEYRITGKGVEISEAIKNYLEKRLDKIDRVIYDDDLVSFNVRIEKDGKNQYVVKFNMNLKGNIINVEERHPDIYTAIDFASDALEKQVKRLKERLKNHPHRSSALVETPLEEPGEFSPSDKVSSVKRVSLLNLDLDEAVMQMDELNHRFLVFRNVNTGEINLLYRDENGDIHLIEMAE”, the protein production is reported as “failed”.
In the case of “MEYYDIIIVGAGPAGSTLARALEDSGKRVLIIDKQAFPRDKTCAGWVTPAVMASLDIDPGKYSVGRTLQPIRRFRIGMMGQSAVENDHGDIVSYGIRRCEFDDYLLDRAECEKQLATAVKSINRNNGNWVINDQWQAPLLVGAGGHFCPVARLLGDGPGKHETVVAAKEVEFEMTPEQARACEARGDTPELWFCRDLKGYAWVFRKGSYLNIGLGREDNHRLSDHLEAFVEEMKQSGRIPSDLPGRFKGHAYLLYAHANRPLVDDGVLLIGDAAGLAYTQSGEGIRPAIESALMAANVIKAAPDYSALSLQSYGERIAERFGTRATDQQPGFEVPEWLKQPIASTLMRSHWFTRKVVTEKWFLHQEVPPLEVAV”, the protein production is reported as “failed”.
With “MEYYFTAQKLAVGYDNRPLIENIDFSLKRGEILTLIGPNGAGKSTILKSIARQLSLVSGTIYLDKSDVVTMNGNEFAKKMAVVLTDKLKTELMTCYDVVATGRYPYTGRFGVLSDEDKKAVDEAMELVNVSQIKDKDFTKISDGQRQRVMLSRAICQQPEIIVLDEPTSYLDIKYKLEFLSILQRLKRQKNLTVIMSLHELDMAKRVSDHILCIDGRYVDRYGTPEEVFTDQYVSGLFGITAGSLEHHHHHH” the protein production was “not failed”.
In the case of “MEYYQPVEINVLSAQDLNSINLLFRPTVYVSVSVTRGSRDKQVTPAAAWDKKFLRWNYRMKFYIEDDKVRRNESVFVFQIKCKRFFGSDQVVGKLFIPGCRLGVWGNIRHEPSAPCEDDIYA”, the protein production is reported as “failed”.
With “MFADNTLTPKEAVRLCALGTIASQPMRYSELAGSVRHFTSRIMGPSLELMGISIELLRYEGLVEAVDDGQGMEDDAMLAISAAGRRELHSLLTARLRPGSDLSKLVVALKMRFLGLMEAEERAHQIDLLIEGVDSELARLADLRGSDGEGGSALAAWLDHDMALLESRLAWLEDFRARL” the protein production was “not failed”.
In the case of “MFAEYLDGRMLMQINAGAFLIALLCLRGDRQRTLDRWLFGAAAGVLLLVYYVWRFTDTLPEWRMDFPSLWAHAFFGFESLTIAYTLISIGIMTRTSDHSAEADAGETALRRGREAPPVDIFIATYNEGLDVLEKTIVAALDIDYPNFRVWVLDDTRRDWLREFCDQVGARYVTRPDNAHAKAGNLNNGLRHSAELDGGAPFIMVLDADFAPNRNILLRIVGLFDDPQVGVVQTPQFYYNADPIQYNLRSTECWVDEQRAFFDVMQPSKDAWGTAFCIGTSFVVRREALDRIGGFPIGTVTEDIHLTYKLMPHGYITRWLNERLSVGLSAEGLPEYISQRSRWGLGTIQVALTADGPLRGPGYTLRERLHYVHGLLHWLSRPFTLMLLAGPLLYWYFNVPTLYGEPLQFLAFGVPALLLYWAYSIWITGARAMPIFTEVTQIVAAMAVSATLVSAIFKPFGRPFKVTNKGLDRSKLVVHGKFAAFYGALFVLAAMGLGRAVAADGTASGVVFNIGWTVISMVLYLASLLVCFELPRPRKEERFPHRERARLCIYGSDGLPREFDGVTQDMSCNGIGLISDAAGRVEAGATGAVWLSELGWVTCRVARTQGHLLGIELFPDMAGRHRLIRMLFGEPAHNIAHRGRPRVAIVQLLRRAFTG”, the protein production is reported as “failed”.
With “MFAMPTFELDALTTLALALILLGVGAQLKKRSRWLTQLCVPAPVIGGFGFALIVWLLRDQQLLAIKLDTAIQTPLMVAFFTTVGLGGSLGLLRRGGKILFVYLGACWSLALLQNLVGVGAAKALGIDPLLGIMAGAVSLEGGFGAAAAFGPIAENLGAVGATTAALASATFGMVAGGLLGSPLARWLIERNRLQIQADQVSTLQHLESAAQGSVAPLDAPTLLRLLTCILLIMVLGFWIGSALNEHLGIVLPSYVGAMFVAIILRNLNDRARIIDIPDSAVSTLGDVCLGVFLTMAMMSLKFWELEQLGLPLLVILVVQVLVMVLLCVFLLFRLFGGNYDAAVLCAGFMGHGLGATPNAVANMGAICDHYKVFSYKAFIIVPLCGAVLIDIVAIPLITWFINAFA” the protein production was “failed”.
For “MFDSVLQQSMQQWLETSLGQYVLEQEQRYFDRVVTDIFGYNATQIGFSGFDFLRNNRMPFKFAFGVRDGASVYAHPHFLPIKSSSIDLVLLPHTLEFNSNPHQILREAHRVLIPEGKVIISGFNPFSLWGMRQRMAKSKTDFPWCGRFIALPRMQDWLELHNFEIVAGQFGCYVPPCTREKWLSRLRFMEAAGDRWWPIAGGVYFLQAVKHECGLHIITPRWEDSPAKRGTVVVPQIERGHRMNNLEVSTVPWREKAGGGLIENRKYGVQYSVNNRDV”, the protein production was “failed”.
For “MFENESLSFEEQTIIQAAERYVQQELANEASGHDWWHIYRVTQLAKTIAEKEQANLFLCILTALLHDIGDEKFNESEEAGLLKVQQWLEANNVSTEQTNHILSIIANMSFKGGNTGKTVTTLEGKVVQDADRLDAIGAIGIARVMAYSGNKGRLIHDPHKQPREQLTQEEYRNGEDTAIMHFYEKLLKLKEQMNTNYGRLLAEKRHQFMELYLEEFYQEWDGHRLEHHHHHH”, the protein production was “not failed”.
For “MFERLPVPLSRHERAGPPMPEIGPYTLHTVDTGRFGLDGGAMFGIVPKPLWSQRIEPDEQNRIPLSMRCLLLIGDGRVVLIDTGIGDTFEDTKFQDIFAVDHSGATLEGSLAAHGVAPVDVTDVVLTHLHFDHAGGSTRRIDGEPAVAFPNATYHVQRRHWNWAADPNPKEEQSFRSDTFAPIEEAGQLNLVEGETTLLPHVDVSLVHGHTEAQQTVTVRDDETTLVYVADLLPTTHHLSPAWTMAYDVRPLRTIEEKGEFLEQAADSEWKLFFEHDPEVAVADVERTDRGVQVVNERSLDAL”, the protein production was “failed”.
For “MFFEIALIGTTASGKTYIANTLAREFNAVVLSLDSLCVYKEINIASAKPSQDDLASIKYFGVNLLSVNEHFNVELFIREYQKAKEFALARNLPLIIVGGTGFYLKTMIDGLSEKTLESKSSLNNDEIYALLLNIDPNYKIEKNDTYRLKKWLGIYEQTREIPSEFLKRTQKTGVLKDIEIYELAWDKEILKKRIKTRTKEMLDNGLLDEAKILFSKFDHKLKALNSIGLKECKEYLDGEISFKELENLITIHTTQLAKRQRTFNKKFQSKALEFDKALATLRMKFSIEKLEHHHHHH”, the protein production was “failed”.
With “MFFKEIHHVAINASNYQATKNFYVEKLGFEVLRENHRPEKNDIKLDLKLGSQELEIFISDQFPARPSYPEALGLRHLAFKVEHIEEVIAFLNEQGIETEPLRVDDFTGKKMTFFFDPDGLPLELHE” the protein production was “not failed”.
